Test results taken from patent publication US7910100B2, “Antibodies directed to the mammalian EAG1 ion channel protein” (Max-Planck-Gesellschaft zur Forderung der Wissen, priority 2004, dated 2011).

What was measured:
[1] = target: T1, endogenous Eag1 antigen in MCF7 breast cancer and IPC-298 melanoma cells (Homo sapiens, UniProt O95259); assay: Immunofluorescence detection of Eag1 antigen in human tumor cells; type: cell-based; details: 2 μg/ml antibody
T1 construct: endogenous in cells; host or cells: MCF7 breast cancer cells, IPC-298 melanoma cells
T1 sequence (O95259 1-989): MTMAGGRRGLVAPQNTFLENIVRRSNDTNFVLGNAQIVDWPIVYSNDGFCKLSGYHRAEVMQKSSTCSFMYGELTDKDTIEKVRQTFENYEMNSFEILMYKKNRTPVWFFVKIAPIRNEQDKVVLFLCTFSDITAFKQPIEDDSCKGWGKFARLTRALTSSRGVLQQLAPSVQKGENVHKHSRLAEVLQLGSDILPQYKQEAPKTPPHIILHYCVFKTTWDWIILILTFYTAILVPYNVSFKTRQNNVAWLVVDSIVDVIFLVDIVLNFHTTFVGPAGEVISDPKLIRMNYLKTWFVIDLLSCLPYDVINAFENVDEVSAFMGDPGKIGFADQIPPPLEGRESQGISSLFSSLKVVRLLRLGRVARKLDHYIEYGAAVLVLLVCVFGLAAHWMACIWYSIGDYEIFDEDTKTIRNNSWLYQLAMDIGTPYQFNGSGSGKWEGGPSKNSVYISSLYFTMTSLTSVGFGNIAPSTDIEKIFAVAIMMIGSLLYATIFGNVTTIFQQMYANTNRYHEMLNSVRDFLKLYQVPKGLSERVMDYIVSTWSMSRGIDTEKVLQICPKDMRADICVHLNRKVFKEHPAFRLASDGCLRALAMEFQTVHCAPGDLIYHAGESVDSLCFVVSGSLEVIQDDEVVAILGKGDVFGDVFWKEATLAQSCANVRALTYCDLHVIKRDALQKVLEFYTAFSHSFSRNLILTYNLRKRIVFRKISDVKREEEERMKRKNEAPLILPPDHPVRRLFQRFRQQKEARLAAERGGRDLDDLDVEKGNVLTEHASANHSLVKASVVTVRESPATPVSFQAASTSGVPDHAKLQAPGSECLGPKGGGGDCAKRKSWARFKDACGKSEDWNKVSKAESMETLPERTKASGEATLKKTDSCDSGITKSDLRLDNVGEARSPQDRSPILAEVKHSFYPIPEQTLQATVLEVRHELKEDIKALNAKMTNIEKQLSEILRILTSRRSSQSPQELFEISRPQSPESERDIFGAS
Protocol: For detection of Eag1 antigen in human tumor cells an Immunofluorescence staining protocol was established. Glass-Chamber slides (Falcon) were pre-coated with 300 μl medium containing 10% FCS at 37° C. for 30 min. 40 000 MCF7 breast cancer cells/well and 40 000 IPC-298 melanoma cells/well were seeded on pre-coated glass chamber slides and cultured at 37° C. in 5% CO2 for 24 h. After removing the chambers, slides were washed with PBS and cells were fixed with 4% Paraformaldehyd (in PBS adjusted to pH 7.5 with 1 M NaOH) at 25° C. for 10 min. Slides were air dried and re-hydrated with PBS for 3 min (3×). Cells were permeabilized with 0.5% Triton-X 100 in PBS for 10 min at 25° C., slides were washed for 3 min in PBS (3×) and each well was blocked with 100 μl blocking buffer (5% FCS, 2.5% BSA in PBS) at 25° C. for 1 hours. 2 μg/ml anti-EAG1 antibody ImAb 4 diluted in 40 μl blocking buffer/well was incubated for 1 h at 25° C., washed 3× with PBS and 50 μl Alexa 546 goat anti-mouse IgG (Molecular Probes; diluted 1:200 in dilution buffer) was incubated as detection antibody for 1 h at 25° C. Slides were washed with PBS (3×), 50 μl DAPI (Roche; diluted 1:1000 in PBS) was added to each well and incubated at 25° C. for 5 min. […]
Staining of the anti-EAG1 antigen with ImAb 4 was analysed using a Fluorescence microscope at 573 nm.

[2] = test system: IPC-298 melanoma cells; assay: IPC-298 cell proliferation assay (AlamarBlue); type: cell-based, human; details: 5 μg/ml antibody, 7 days, pre-incubation with 40 mM KCl
Protocol: In vitro experiments were conducted in order to determine the ability of the antibodies of the invention to inhibit cancer cell proliferation. 1000 IPC-298 cells were seeded in 60 μl/well 10% FCS-containing medium (DMEM […] glucose) on 96-well plates overnight. Cells were pre-incubated in quadruplicates with 5 μg/ml anti-Eag1 monoclonal antibodies, ImAb1 and ImAb3, diluted in FCS-containing medium with 40 mM KCl for 1 h at 37° C. in 5% CO2. Treatment of the cells with 40 mM KCl ensures an open conformation of the ion channel Eag1 and might accelerate binding of the monoclonal anti-EAG1 antibodies to its corresponding epitope. After 1 h incubation, supernatants were removed and replaced with 100 μl/well FCS-containing medium with 5 μg/ml anti-Eag1 antibodies, ImAb1 and ImAb3. Cells were then incubated at 37° C. in 5% CO2 for 7 days. In order to assess proliferation and cell viability 10 μl/well AlamarBlue™ (BIOSOURCE) was added and incubated at 37° C. in the dark. Absorbance was measured using a spectrofluorometer at 590 nm every 30 min.

[3] = test system: Eag1; assay: BIAcore binding analysis on Eag1 C-terminus and H5 region; details: 10 μg/ml antibody, flow rate 20 μl/min; chips coated with Eag1 C-terminus (aa 694 to 962) or H5 region (aa 374 to 452)
Protocol: In order to analyse cross-reactivity of anti-Eag1 antibodies of the invention with the most homologous Eag family member Eag2 a BIAcore™ binding analysis was performed. BIAcore chips were coated with Eag1 C-terminus (amino acids 694 to 962), the H5 region (amino acids 374 to 452) or Eag2 (the equivalent regions fused in a single construct). The interaction with anti-Eag1 antibodies ImAb1 and ImAb3 were analysed using 10 μg/ml antibody at a flow rate of 20 μl/min.

B1: ImAb4: mouse monoclonal anti-Eag1 antibody, IgG2b kappa; light chain SEQ ID NO: 2, heavy chain SEQ ID NO: 4 (antibody, listed as Mus musculus)
heavy: MRVLILLWLFTAFPGILSDVQLQESGPGLVKPSQSLSLTCTVTGYSITSDYAWNWIRQFPGNKLEWMGYISYSGSTIYNPSLKSRISITRDTSKNQFFLQLNSVTTEDTATYYCARFGNYGNTLNYWGQGTSVTVSSAKTTPPSVYPLAPGCGDTTGSSVTLGCLVKGYFPESVTVTWNSGSLSSSVHTFPALLQSGLYTMSSSVTVPSSTWPSQTVTCSVAHPASSTTVDKKLEPSGPISTINPCPPCKECHKCPAPNLEGGPSVFIFPPNIKDVLMISLTPKVTCVVVDVSEDDPDVQISWFVNNVEVHTAQTQTHREDYNSTIRVVSTLPIQHQDWMSGKEFKCKVNNKDLPSPIERTISKIKGLVRAPQVYILPPPAEQLSRKDVSLTCLVVGFNPGDISVEWTSNGHTEENYKDTAPVLDSDGSYFIYSKLNMKTSKWEKTDSFSCNVRHEGLKNYYLKKTISRSPGK
light: MKLPVRLLVLMFWIPASSSDVVMTQTPLSLPVSLGDQASISCRSSQSLVHSNGNTYLHWYLQKPGQSPKLLIYKVSNRFSGVPDRFSGSGSGTDFTLKISRVEAEDLGVYFCSQSTHVPPTFGGGTKLEIKRADAAPTVSIFPPSSEQLTSGGASVVCFLNNFYPKDINVKWKIDGSERQNGVLNSWTDQDSKDSTYSMSSTLTLTKDEYERHNSYTCEATHKTSTSPIVKSFNRNEC
preferential binding by cell stage [1]: preferentially binds to dividing human cancer cells | binding to endogenous Eag1 antigen ([1]; fixed permeabilized cells): binds to endogenous Eag1 antigen in human cancer cells

B2: ImAb1: mouse monoclonal anti-Eag1 antibody; VL SEQ ID NO: 43, VH SEQ ID NO: 44; binds C-terminus of Eag1 (antibody, listed as Mus musculus)
heavy: MNFGFSLIFLVLVLKGVQCEVKLVESGGGLVKPGGSLKLSCAASGFTFSNYAMSWVRQTPEKRLEWVASISSDGDTYFPDNVKGRFTISRENAGNILFLQMSSLRSEDTAMYYCARGFMITFWGQGTLVTVSAAKTTPPSVYPLAPGCGDTTGSSVTLGCLVKGYFPESVTVTWNSGSLSSSVHTFPALLQSGLYTMSSSVTVPSSTWPSQTVTCSVAHPASSTTVD
light: MDMRAPAQFFGILLLWFPGIRCDIKMTQSPSSMYASLGERVTITCKASQDIKSYLSWYQQKPWKSPKILIYYATSLADGVPSRISGSGSGQDYSLTISSLESDDTATYYCLQHGESPYTFGGGTKLEIKRADAAPTVSIFPPSSEQLTSGGASVVCFLNNFYPKDINVKWKIDGSERQNGVLNSWTDQDSKDSTYSMSSTLTLTKDEYERHNSYTCEATHKTSTSPIVKSFNRNEC
inhibition of cell proliferation [2]: inhibit human cancer cell growth | binding region on Eag1 antigen [3]: specifically binds to the C-terminus of the Eag1 antigen
